Among the data in patent publication US20170192009A1 are GFP fluorescence value and GFP fluorescence values, retold here.

One test deals with sfGFP. Nature of the test: flow cytometry of permeabilized IT cells, treated with sfGFP; GFP channel [panel sfGFP].
The target of test [1] is GFP-hIL6 fusion protein (N-terminal 6x His-tag, mGFP, gs linker, human interleukin-6), purified (human). Description: flow cytometry of permeabilized IT cells, treated with mGFP-IL6; GFP channel [panel IL-6]. (In general: A flow cytometer gives signals particle by particle.)
For test [2] the target is unchanged. Description: flow cytometry of permeabilized E. coli IT cells displaying the binder-mRFP-CBD on inclusion bodies, treated with GFP-IL6; GFP channel.
For test [3] the target is unchanged. Nature of the test: flow cytometry of permeabilized IT cells treated with GFP-IL6.

Take negative control (f): the values for the GFP fluorescence value (with sfGFP; in test [1]) were 15.2 and 26.2, respectively.
“InVLR5c-mRFP-CBD fusion protein (In-VLR5c repebody fused to mRFP and family II CBD, displayed on inclusion bodies in permeabilized E. coli IT cells) (designed binder)” returned a GFP fluorescence value in test [2] of 17. In test [3], this substance returned a GFP fluorescence of 10.
